Laboratory results taken from patent US7494647 (Chugai, dated 2009).
Like-named read-outs stand apart in the source and are kept apart here.

What was measured:
TF/Factor VIIa complex = TF/Factor VIIa complex (human, UniProt P13726 33-295; P08709 61-466)
[1] = molecular target: T1, soluble human TF (human TF 1-219 with the FLAG peptide linked to the C-terminal) (human, UniProt P13726 33-251); assay: BIACORE; antibody captured on Protein G chip, soluble TF as analyte; mean ± SD, n = 3
T1 construct: Entry is the whole soluble construct (TF 1-219 followed by FLAG peptide M2); also called soluble TF; shTF
T1 sequence (P13726 other isoform, or with tags, fused parts or gaps limits assumed): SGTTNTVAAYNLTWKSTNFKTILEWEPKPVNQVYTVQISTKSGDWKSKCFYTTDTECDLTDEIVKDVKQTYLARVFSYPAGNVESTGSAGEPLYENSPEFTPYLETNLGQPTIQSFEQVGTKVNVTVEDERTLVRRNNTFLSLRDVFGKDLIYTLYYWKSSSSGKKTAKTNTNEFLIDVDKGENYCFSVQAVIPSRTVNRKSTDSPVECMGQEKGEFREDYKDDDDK
Description: Kinetic analysis of the antigen-antibody reaction was carried out using BIACORE. The recombinant Protein G was immobilized on a sensor chip, to which the antibody was coupled. The purified recombinant TF (a soluble TF in which the FLAG peptide was tagged at 1-219) was used as the antigen, and the-soluble TF prepared at various concentrations were used as analytes. From the sensorgram obtained, kinetic parameters (dissociation rate constants kdiss, and binding rate constants kass) were calculated.
As the running buffer, the HBS-EP buffer was used. Ten μl Of […] antibody solution was injected at a flow rate of 20 μl/min to immobilize antibody. The antibody was diluted with the HBS-EP buffer. Forty μl Of the soluble human TF solution at various concentrations were injected at a flow rate of 30 μl/min thereto. In the analysis, 80 seconds for injection was set as the binding phase and then changed to the HBS-EP buffer to set the dissociation phase of 120 seconds. After the dissociation phase was over, 10 μl of 20 mM hydrochloric acid was injected to reconstitute the sensor chip. The binding, dissociation, and reconstitution were set as one cycle, and the sensorgram was obtained for each antibody. The soluble human TF solution was prepared at concentrations of 250 nM, 125 nM, 62.5 nM, 31.3 nM, 15.6 nM, 7.81 nM, and 3.91 nM using the HBS-EP buffer. As the blank, the sensorgram obtained by injecting the HBS-EP buffer used for dilution was used.
The data file of interest was read in, and the comparison of reaction patterns by superscription was made using as the baseline the sensorgram of the HBS-EP buffer. Furthermore, using an analytical application software "BIAevaluation 2.1" (Pharmacia) exclusively for BIACORE that calculates kinetic parameters (binding rate constants kass and dissociation rate constants kdiss) by curve-fitting, kinetic analysis of interaction was performed. In order to determine the binding rate constants kass, the analysis model type 4 was used (BIAevaluation 2.1 Software Hand book, A1-A5). Based on the values calculated from each flow cell, kinetic parameters for each antibody were obtained.

[2] = molecular target: T2, human tissue factor (TF) on human bladder carcinoma cells J82 (human, UniProt P13726 33-295); assay: cell ELISA on paraformaldehyde-fixed J82 cells; AP-conjugated goat anti-human IgGγ; absorbance 405/655 nm
T2 construct: whole, on cells; also called the antigen; J82 cells
T2 sequence (P13726 33-295): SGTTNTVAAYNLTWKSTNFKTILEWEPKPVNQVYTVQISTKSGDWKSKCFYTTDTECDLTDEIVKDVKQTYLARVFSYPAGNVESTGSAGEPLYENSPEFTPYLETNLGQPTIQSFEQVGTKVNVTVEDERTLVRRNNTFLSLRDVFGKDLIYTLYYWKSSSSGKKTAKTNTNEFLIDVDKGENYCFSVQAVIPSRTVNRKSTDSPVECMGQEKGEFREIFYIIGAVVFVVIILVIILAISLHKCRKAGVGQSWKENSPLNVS
Description: (§1) Cell ELISA plates for measurement of antigen binding were prepared as follows. Cells used were human bladder carcinoma cells J82 (ATCC HTB-1). To 60 wells of a 96-well cell culture plate, 1 ×10^5 J82 cells were inoculated. This was cultured (RPMI1640 medium containing 10% fetal bovine serum (GIBCO)) for one day in a CO_2 incubator to allow the cells to be attached thereto. After discarding the culture liquid, each well was washed twice with 300 μl PBS. 100 μl of PBS containing 4% paraformaldehyde (hereinafter referred to as PFA/PBS) was added to each well, and placed on ice for 10 minutes to immobilize the cells.
(§2) PFA/PBS was discarded, and each well was washed twice with 300 μl of PBS, and then blocked with 250 μl of DB. The culture supernatant or purified antibody was serially diluted with DB, 100 μl of which was added to each well. After incubating at room temperature for 2 hours followed by washing with RB, 100 μl of alkaline phosphatase-conjugated goat anti-human IgGγ antibody (BioSource) diluted 1000-fold with DB was added. After incubating for 1 hour followed by washing with RB, the substrate solution was added, and then absorbance at 405/655 nm was measured using the Microplate Reader (Bio-Rad).

[3] = molecular target: T2, human tissue factor (TF) on human …; assay: as above; remark: listed apart in the source
Description: as §1, §2

Chain of TF/Factor VIIa complex (P13726 33-295 limits assumed, chain 1 of 2): as the sequence (P13726 33-295) above
Chain of TF/Factor VIIa complex (P08709 61-466 limits assumed, chain 2 of 2): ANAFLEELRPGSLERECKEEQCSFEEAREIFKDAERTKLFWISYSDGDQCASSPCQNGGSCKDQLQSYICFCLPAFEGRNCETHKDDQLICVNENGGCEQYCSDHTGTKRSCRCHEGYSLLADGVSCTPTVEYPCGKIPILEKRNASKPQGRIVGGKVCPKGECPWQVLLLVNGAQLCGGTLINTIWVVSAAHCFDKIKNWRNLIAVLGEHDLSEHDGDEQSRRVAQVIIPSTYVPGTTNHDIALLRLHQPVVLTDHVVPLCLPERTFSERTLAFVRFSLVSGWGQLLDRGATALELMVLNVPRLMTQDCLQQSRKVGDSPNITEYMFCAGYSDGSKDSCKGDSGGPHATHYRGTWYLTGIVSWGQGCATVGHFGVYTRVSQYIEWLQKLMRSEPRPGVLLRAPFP

- IC50 (read off the curve) (TF/Factor VIIa complex): 0.1 µg/mL
- Kd [1]: 2.3 nM
- koff [1]: 0.000952 s⁻¹
- kon [1]: 415000 M⁻¹ s⁻¹
- EC50 (read off the curve) [2]: ~70 ng/mL
- EC50 (read off the curve) [3]: ~50 ng/mL
B1: H chain humanized version b/L chain humanized version b antibody (antibody, IgG4, V domains shown)
VH: QVQLLESGAVLARPGTSVKISCKASGFNIKDYYMHWVKQRPGQGLEWIGGNDPANGHSMYDPKFQGRVTITADTSTNTAYMELSSLRSEDTAIYYCARDSGYAMDYWGQGTLVTVSS
VL: DIQMTQSPSSLSASVGDRVTITCKASQDIKSFLSWYQQKPGKAPKLLIYYATSLADGVPSRFSGSGSGTDYTLTISSLQPEDFATYYCLQHGESPYTFGGGTKVEIK
notes: also called b-b; bb
